± gives the uncertainty stated by the source.
B1: POU domain, class 2, transcription factor 3, residues 186 to 260; numbered along this chain, Q9UKI9 (parent)
chain: SDLEELEKFAKTFKQRRIKLGFTQGDVGLAMGKLYGNDFSQTTISRFEALNLSFKNMCKLKPLLEKWLNDAESSP
B2: Cold shock protein CspB, residues 1 to 66; numbered along this chain, P41016 (parent)
chain: MQRGKVKWFNNEKGYGFIEVEGGSDVFVHFTAIQGEGFKTLEEGQEVSFEIVQGNRGPQAANVVKL

Variants of: B1
Assay: abundance fitness (aPCA) (normalised: wild type 0, dead -1); higher = more abundant; growth selection in yeast, the domain comes from the species named
Settings: Homo sapiens

Abundance fitness: each site, then its substitutions
P75: S -0.067 ± 0.071, M -0.059 ± 0.097, E -0.017 ± 0.074, L 0.022 ± 0.07, G 0.011 ± 0.049, H -0.044 ± 0.088, K -0.128 ± 0.15, R -0.044 ± 0.053, Q -0.086 ± 0.089, W -0.183 ± 0.12, C -0.076 ± 0.15, F -0.185 ± 0.17

Variants of: B2
Assay: as above
Settings: Bacillus caldolyticus

Abundance fitness: each site, then its substitutions
W8: G -0.304 ± 0.2, R -0.075 ± 0.42, C -0.046 ± 0.12
R3: K -0.046 ± 0.055, M 0.019 ± 0.051, S -0.039 ± 0.031, E -0.019 ± 0.041, T -0.024 ± 0.059, F -0.003 ± 0.062, N -0.061 ± 0.067, I -0.025 ± 0.081, G -0.004 ± 0.031, Y 0.027 ± 0.065, V -0.013 ± 0.034, Q -0.021 ± 0.041, D -0.023 ± 0.069, C -0.076 ± 0.059, W -0.117 ± 0.041, A -0.032 ± 0.034
M1: T -0.03 ± 0.057, I -0.006 ± 0.075, S -0.049 ± 0.049, A -0.046 ± 0.047, L -0.044 ± 0.044, G -0.064 ± 0.05, R -0.096 ± 0.047, K -0.1 ± 0.069, H 0.016 ± 0.18, W -0.086 ± 0.072, Y 0.027 ± 0.15, F -0.025 ± 0.065, C -0.102 ± 0.1, E 0.008 ± 0.053, Q -0.021 ± 0.2, D -0.086 ± 0.085
K5: E -0.065 ± 0.056, G -0.222 ± 0.033, M -0.069 ± 0.039, Q -0.056 ± 0.045, F -0.008 ± 0.061, Y -0.072 ± 0.061, P -0.22 ± 0.041, A -0.042 ± 0.042, I -0.037 ± 0.05, C -0.003 ± 0.049, D -0.156 ± 0.082, S -0.027 ± 0.034, V -0.03 ± 0.039, H 0.005 ± 0.065, W -0.052 ± 0.03, R -0.035 ± 0.026, N -0.029 ± 0.063
E12: H 0.009 ± 0.054, T 0.034 ± 0.037, K 0.077 ± 0.074, Q 0.017 ± 0.057, S 0.022 ± 0.032, D -0.021 ± 0.049, L 0.017 ± 0.029, G -0.02 ± 0.041, N 0.042 ± 0.066, A 0.036 ± 0.033, V -0.064 ± 0.032, P 0.036 ± 0.032, F 0.006 ± 0.034, I -0.198 ± 0.04, C -0.004 ± 0.049, M 0.004 ± 0.043, W 0.005 ± 0.04, R 0.049 ± 0.034, Y 0.016 ± 0.045
V20: E -0.002 ± 0.043, L 0 ± 0.029, H 0.094 ± 0.14, M -0.018 ± 0.049, K 0.055 ± 0.056, I -0.014 ± 0.056, F -0.092 ± 0.056, N -0.028 ± 0.094, D -0.054 ± 0.054, A -0.003 ± 0.035, P 0.018 ± 0.041
N11: R -0.017 ± 0.038, M -0.042 ± 0.048, H -0.027 ± 0.07, A -0.052 ± 0.046, C -0.051 ± 0.054, G -0.071 ± 0.038, Y -0.111 ± 0.074, T -0.025 ± 0.044, E -0.027 ± 0.068, K -0.047 ± 0.078, F -0.052 ± 0.07, D 0.028 ± 0.06, I -0.065 ± 0.083, S -0.033 ± 0.039, L -0.003 ± 0.036, Q -0.138 ± 0.063
K7: Y -0.316 ± 0.042, M -0.072 ± 0.049, P -0.817 ± 0.057, E -0.225 ± 0.055, G -0.106 ± 0.031, I 0.02 ± 0.052, H -0.088 ± 0.046, A -0.002 ± 0.03, R -0.045 ± 0.034, F -0.3 ± 0.038, L -0.058 ± 0.027, W -0.49 ± 0.057, S -0.033 ± 0.026, N -0.016 ± 0.04, Q -0.07 ± 0.051, D -0.199 ± 0.048, T -0.052 ± 0.032, C -0.003 ± 0.035, V -0.034 ± 0.028
K13: I -0.065 ± 0.056, W -0.089 ± 0.043, G -0.131 ± 0.043, N -0.106 ± 0.068, V -0.044 ± 0.045, Y -0.03 ± 0.083, M -0.019 ± 0.042, E -0.133 ± 0.05, R -0.007 ± 0.037, C -0.071 ± 0.062, F -0.1 ± 0.057, S -0.044 ± 0.038, A -0.078 ± 0.058, D -0.09 ± 0.048, H 0 ± 0.084, L 0.014 ± 0.027, P -0.154 ± 0.036, Q -0.072 ± 0.052
V6: I -0.017 ± 0.04, E -1.02 ± 0.091, W -0.756 ± 0.058, R -0.971 ± 0.052, C -0.058 ± 0.059, Q -0.824 ± 0.066, A -0.088 ± 0.035, L -0.158 ± 0.03, P -0.801 ± 0.081, T -0.002 ± 0.048, S -0.324 ± 0.036, M -0.104 ± 0.059, D -1.09 ± 0.11, F -0.622 ± 0.051, H -0.863 ± 0.084, G -0.452 ± 0.026
E19: L 0.019 ± 0.033, P -0.316 ± 0.037, A 0.05 ± 0.052, M 0 ± 0.043, C 0.021 ± 0.06, N -0.003 ± 0.083, R 0.008 ± 0.037, H 0.016 ± 0.073, G 0.023 ± 0.039, Q 0.009 ± 0.057, I -0.021 ± 0.059, F -0.048 ± 0.05, V 0.002 ± 0.044, K 0.031 ± 0.078, T -0.029 ± 0.064, Y -0.075 ± 0.057, S 0.016 ± 0.031, W -0.011 ± 0.044, D 0.006 ± 0.072
G4: M -0.997 ± 0.066, Q -0.428 ± 0.035, Y -0.81 ± 0.041, F -0.866 ± 0.035, T -0.77 ± 0.039, W -1.05 ± 0.067, A -0.117 ± 0.025, E -0.717 ± 0.048, N -0.368 ± 0.029, C -0.905 ± 0.042, D -0.891 ± 0.038, R -0.537 ± 0.024, P -0.571 ± 0.035, K -0.654 ± 0.041, S -0.109 ± 0.021, H -0.409 ± 0.029
Y15: S -0.22 ± 0.028, G -0.285 ± 0.037, D -0.332 ± 0.072, F -0.047 ± 0.05, K -0.189 ± 0.044, V -0.155 ± 0.035, H -0.089 ± 0.072, W 0.023 ± 0.051, M -0.138 ± 0.047, N -0.256 ± 0.054, L -0.117 ± 0.026, Q -0.19 ± 0.034, C -0.186 ± 0.048, P -0.885 ± 0.073, R -0.227 ± 0.025, E -0.188 ± 0.041, A -0.233 ± 0.052
Q2: W 0.001 ± 0.051, M 0.051 ± 0.066, P -0.206 ± 0.038, G -0.043 ± 0.039, T 0.029 ± 0.056, N -0.026 ± 0.12, I 0.028 ± 0.078, R -0.006 ± 0.038, F 0.048 ± 0.069, V 0.018 ± 0.039, E 0.011 ± 0.067, H 0.027 ± 0.083, S -0.034 ± 0.035, A -0.003 ± 0.046, Y 0.003 ± 0.051, C 0.027 ± 0.061, D -0.036 ± 0.073
G16: E -1.16 ± 0.12, I -0.911 ± 0.07, M -0.965 ± 0.077, S -1.01 ± 0.054, C -0.861 ± 0.06, V -0.847 ± 0.046, K -1.08 ± 0.15, Y -0.946 ± 0.099, R -1.08 ± 0.056, D -0.927 ± 0.1, W -1.18 ± 0.13, H -1 ± 0.15, F -0.937 ± 0.071, T -0.954 ± 0.087, N -0.98 ± 0.11, A -0.696 ± 0.046, L -0.901 ± 0.046
G14: M -0.202 ± 0.053, V -0.778 ± 0.04, L -0.24 ± 0.028, E -0.359 ± 0.032, Y -0.445 ± 0.07, D -0.468 ± 0.059, R -0.062 ± 0.031, C -0.13 ± 0.081, K -0.06 ± 0.061, P -0.91 ± 0.073, H -0.047 ± 0.072, Q -0.196 ± 0.044, I -0.902 ± 0.077, S -0.123 ± 0.029, F -0.484 ± 0.06, T -0.383 ± 0.039, A -0.175 ± 0.035
F9: Y -0.119 ± 0.061, T -0.306 ± 0.038, Q -0.854 ± 0.073, N -0.854 ± 0.11, R -0.583 ± 0.03, V -0.239 ± 0.039, W -0.092 ± 0.043, D -0.881 ± 0.11, E -0.827 ± 0.088, M -0.233 ± 0.045, C -0.35 ± 0.038, K -0.389 ± 0.047, S -0.408 ± 0.028, P -0.956 ± 0.069, I -0.272 ± 0.045, G -0.939 ± 0.09, A -0.303 ± 0.037, H -0.567 ± 0.057
F17: N -0.171 ± 0.07, R -0.132 ± 0.032, K -0.138 ± 0.07, P -0.977 ± 0.061, Q -0.161 ± 0.042, E -0.172 ± 0.049, G -0.236 ± 0.037, M -0.139 ± 0.048, C -0.18 ± 0.052, T -0.126 ± 0.053, D -0.558 ± 0.072, H -0.151 ± 0.065, L -0.171 ± 0.025, V -0.165 ± 0.027, Y -0.192 ± 0.048, S -0.171 ± 0.029, I -0.128 ± 0.063, A -0.159 ± 0.039, W -0.084 ± 0.042
I18: L 0.015 ± 0.031, P -1.19 ± 0.14, N -0.85 ± 0.13, M -0.208 ± 0.039, A -0.272 ± 0.039, D -1.08 ± 0.31, G -1.07 ± 0.15, C -0.164 ± 0.064, T -0.721 ± 0.048, Y -1.07 ± 0.18, F -0.297 ± 0.044, H -0.812 ± 0.12, K -0.926 ± 0.078, Q -1.12 ± 0.14, W -0.973 ± 0.07
N10: T -0.118 ± 0.051, C -0.027 ± 0.048, W -0.122 ± 0.037, A -0.047 ± 0.034, Q -0.025 ± 0.049, Y -0.214 ± 0.062, D -0.086 ± 0.061, R -0.031 ± 0.028, M -0.083 ± 0.053, P -0.792 ± 0.053, F -0.132 ± 0.061, L -0.069 ± 0.032, S 0.01 ± 0.034, E -0.079 ± 0.051, I -0.023 ± 0.074, K -0.038 ± 0.056

From the Human Domainome abundance scans (Beltran et al. 2025)
